These results are taken from the supplement of paper PMC9112550, “Optimization of the antimicrobial peptide Bac7 by deep mutational scanning” (BMC Biology, 2022).

The test system of this data set is Escherichia coli TOP10. The experiment in a line: shrunken log2 fold change of peptide-encoding DNA abundance (4.5 h post-induction vs induction); higher = less antimicrobial activity (less host growth inhibition). The note with it: time post-induction: 4.5 h; library: site-saturation at positions 5, 18, 19, 20.
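Further: peptides expressed intracellularly from a pBAD plasmid library in pooled LB shake-flask culture, induced with 0.3% L-arabinose, DNA abundance read by NGS, three biological replicates, DESeq2 with apeglm shrinkage.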

Turning to RRIRSRPPRLPRPRPRPGCDPRP, the “shrunken log2 fold change” value is 0.332.
In the case of RRIRYRPPRLPRPRPRPGTMPRP it was -0.139; in that of RRIRHRPPRLPRPRPRPKWYPRP, -0.462.
On to RRIRWRPPRLPRPRPRPLQTPRP, for which the “shrunken log2 fold change” value came to 0.957.
For RRIRVRPPRLPRPRPRPTSLPRP, the “shrunken log2 fold change” value is -0.262.
In the case of RRIRDRPPRLPRPRPRPATNPRP it was 0.0922; in that of RRIRDRPPRLPRPRPRPMYEPRP, 0.183.
In the case of RRIRERPPRLPRPRPRPVLGPRP it was -0.101; in that of RRIRDRPPRLPRPRPRPIVTPRP, 0.171.
The figure for RRIRKRPPRLPRPRPRPLCTPRP is 0.179.
Consider RRIRWRPPRLPRPRPRPDSPPRP, for which the “shrunken log2 fold change” value is 0.0588.
As for RRIRDRPPRLPRPRPRPSFDPRP, the “shrunken log2 fold change” value is -0.0842.
For RRIRTRPPRLPRPRPRPWPAPRP, the “shrunken log2 fold change” value came to 0.61.
The figure for RRIRFRPPRLPRPRPRPKVDPRP is -0.0492; for RRIRIRPPRLPRPRPRPIYQPRP it is -0.00516; for RRIRVRPPRLPRPRPRPWCYPRP it is -0.366.
Turning to RRIRYRPPRLPRPRPRPRPKPRP, the “shrunken log2 fold change” value stood at 0.374.
As for RRIRMRPPRLPRPRPRPRVYPRP, the “shrunken log2 fold change” value came out at 0.0557.
As to RRIRRRPPRLPRPRPRPKMRPRP, the “shrunken log2 fold change” value turned out to be 0.733.
The figure for RRIRIRPPRLPRPRPRPLSMPRP is -0.395; for RRIRERPPRLPRPRPRPPESPRP it is 0.16; for RRIRFRPPRLPRPRPRPFENPRP it is -0.0822.
The figure for RRIRLRPPRLPRPRPRPQQVPRP is 0.107; for RRIRERPPRLPRPRPRPAMWPRP it is 0.293.
As to RRIRFRPPRLPRPRPRPSMSPRP, the “shrunken log2 fold change” value is -0.394.
Consider RRIRFRPPRLPRPRPRPHSRPRP, for which the “shrunken log2 fold change” value was -0.112.
With RRIRSRPPRLPRPRPRPRNVPRP, the “shrunken log2 fold change” value is 0.0864.
In the case of RRIRLRPPRLPRPRPRPFEEPRP it was 0.127.
In the case of RRIRQRPPRLPRPRPRPCSEPRP it was -0.201.
In the case of RRIRDRPPRLPRPRPRPRFFPRP, the “shrunken log2 fold change” value is 0.226.
Turning to RRIRMRPPRLPRPRPRPLGIPRP, the “shrunken log2 fold change” value is 0.0188.
The figure for RRIRKRPPRLPRPRPRPLSRPRP is 0.254.
On to RRIRHRPPRLPRPRPRPAWEPRP, for which the “shrunken log2 fold change” value amounted to 0.421.
In the case of RRIRERPPRLPRPRPRPPSPPRP it was -0.0326.
In the case of RRIRVRPPRLPRPRPRPKDGPRP it was 0.0237; in that of RRIRLRPPRLPRPRPRPGIHPRP, -0.322.
Turning to RRIRTRPPRLPRPRPRPVMEPRP, the “shrunken log2 fold change” value was found to be 0.187.
In the case of RRIRIRPPRLPRPRPRPPSPPRP it was 0.168; in that of RRIRQRPPRLPRPRPRPWGSPRP, -0.0209; in that of RRIRVRPPRLPRPRPRPEIFPRP, 0.00503.
Take RRIRQRPPRLPRPRPRPMVMPRP: the “shrunken log2 fold change” value stood at 0.0852.
The figure for RRIRWRPPRLPRPRPRPVVGPRP is 0.738.
For RRIRYRPPRLPRPRPRPTIWPRP, the “shrunken log2 fold change” value is -0.196.
On to RRIRDRPPRLPRPRPRPVSSPRP, for which the “shrunken log2 fold change” value is -0.0849.
In the case of RRIRSRPPRLPRPRPRPRRFPRP it was -0.0186; in that of RRIRCRPPRLPRPRPRPVGQPRP, 0.0533.
Turning to RRIRTRPPRLPRPRPRPPTVPRP, the “shrunken log2 fold change” value worked out at 0.44.
Consider RRIRWRPPRLPRPRPRPFMEPRP, for which the “shrunken log2 fold change” value was -0.239.
Consider RRIRLRPPRLPRPRPRPLTHPRP, for which the “shrunken log2 fold change” value was -0.0644.
The figure for RRIRYRPPRLPRPRPRPVSHPRP is -0.00492.
As for RRIRDRPPRLPRPRPRPDRTPRP, the “shrunken log2 fold change” value was found to be 0.0519.
The figure for RRIRFRPPRLPRPRPRPNPEPRP is -0.197; for RRIRWRPPRLPRPRPRPTALPRP it is 0.257; for RRIRKRPPRLPRPRPRPGELPRP it is -0.012.
The figure for RRIRSRPPRLPRPRPRPNMHPRP is -0.257; for RRIRHRPPRLPRPRPRPRHHPRP it is -0.0639; for RRIRDRPPRLPRPRPRPLWEPRP it is 0.0751.
On to RRIRRRPPRLPRPRPRPTVVPRP, for which the “shrunken log2 fold change” value was determined as 0.0199.
In the case of RRIRYRPPRLPRPRPRPPGQPRP it was 0.0011.
The figure for RRIRTRPPRLPRPRPRPFWDPRP is 0.126; for RRIRARPPRLPRPRPRPSEEPRP it is 0.452.
For RRIRVRPPRLPRPRPRPFKDPRP, the “shrunken log2 fold change” value was -0.166.
In the case of RRIRERPPRLPRPRPRPLCNPRP it was -0.342; in that of RRIRHRPPRLPRPRPRPSKHPRP, -0.177.
The figure for RRIRSRPPRLPRPRPRPIEVPRP is 0.0392; for RRIRDRPPRLPRPRPRPETEPRP it is -0.0111; for RRIRCRPPRLPRPRPRPLKDPRP it is -0.0917.
In the case of RRIRPRPPRLPRPRPRPTWGPRP it was 0.593; in that of RRIRNRPPRLPRPRPRPWNEPRP, -0.233; in that of RRIRERPPRLPRPRPRPKCHPRP, -0.428.
RRIRKRPPRLPRPRPRPGDYPRP: the “shrunken log2 fold change” value was determined as 0.559.
For the sequence RRIRCRPPRLPRPRPRPLFIPRP, the “shrunken log2 fold change” value was -0.51.
In the case of RRIRPRPPRLPRPRPRPVTCPRP it was -0.237; in that of RRIRKRPPRLPRPRPRPTVPPRP, 0.283.
For the sequence RRIRNRPPRLPRPRPRPHQRPRP, the “shrunken log2 fold change” value was found to be 0.244.
In the case of RRIRPRPPRLPRPRPRPPQTPRP, the “shrunken log2 fold change” value was determined as 0.362.
On to RRIRCRPPRLPRPRPRPMPHPRP, for which the “shrunken log2 fold change” value was -0.0714.
The figure for RRIRDRPPRLPRPRPRPPWQPRP is 0.475.
With RRIRQRPPRLPRPRPRPGSQPRP, the “shrunken log2 fold change” value is -0.161.
For the sequence RRIRPRPPRLPRPRPRPFSWPRP, the “shrunken log2 fold change” value was -0.0698.
Consider RRIRFRPPRLPRPRPRPEEKPRP, for which the “shrunken log2 fold change” value is -0.0254.
The figure for RRIRKRPPRLPRPRPRPGIMPRP is -0.206; for RRIRSRPPRLPRPRPRPLIIPRP it is -0.678; for RRIRPRPPRLPRPRPRPAQRPRP it is 0.104.
In the case of RRIRDRPPRLPRPRPRPYWSPRP it was -0.503; in that of RRIRIRPPRLPRPRPRPLTCPRP, -0.174; in that of RRIRVRPPRLPRPRPRPQPGPRP, 0.255.
In the case of RRIRERPPRLPRPRPRPEAMPRP it was 0.0431.
For the sequence RRIRDRPPRLPRPRPRPTVGPRP, the “shrunken log2 fold change” value worked out at 0.351.
With RRIRNRPPRLPRPRPRPVLMPRP, the “shrunken log2 fold change” value was -0.14.
For RRIRFRPPRLPRPRPRPSNPPRP, the “shrunken log2 fold change” value is -0.674.
The figure for RRIRMRPPRLPRPRPRPMYMPRP is 0.0751.
The figure for RRIRCRPPRLPRPRPRPQSFPRP is -0.253; for RRIRGRPPRLPRPRPRPICYPRP it is 0.543; for RRIRRRPPRLPRPRPRPMAGPRP it is 0.111.
As for RRIRCRPPRLPRPRPRPIEAPRP, the “shrunken log2 fold change” value was -0.108.
The figure for RRIRHRPPRLPRPRPRPKSAPRP is -0.0502; for RRIRLRPPRLPRPRPRPAQDPRP it is 0.392.
In the case of RRIRDRPPRLPRPRPRPGCMPRP it was 0.206.
As to RRIRERPPRLPRPRPRPARPPRP, the “shrunken log2 fold change” value was 0.626.
In the case of RRIRSRPPRLPRPRPRPNFNPRP it was -0.298.
On to RRIRQRPPRLPRPRPRPRTVPRP, for which the “shrunken log2 fold change” value worked out at 0.349.
In the case of RRIRWRPPRLPRPRPRPMYGPRP, the “shrunken log2 fold change” value was -0.0856.
For the sequence RRIRWRPPRLPRPRPRPHMFPRP, the “shrunken log2 fold change” value is -0.0668.
On to RRIRRRPPRLPRPRPRPGACPRP, for which the “shrunken log2 fold change” value was determined as 0.475.
Regarding RRIRIRPPRLPRPRPRPIWVPRP, the “shrunken log2 fold change” value is -0.145.
With RRIRERPPRLPRPRPRPATMPRP, the “shrunken log2 fold change” value is -0.324.
The figure for RRIRPRPPRLPRPRPRPKAYPRP is -0.029.
As for RRIRCRPPRLPRPRPRPYGPPRP, the “shrunken log2 fold change” value is -0.398.
Take RRIRIRPPRLPRPRPRPLLFPRP: the “shrunken log2 fold change” value was -0.553.
Turning to RRIRSRPPRLPRPRPRPQHFPRP, the “shrunken log2 fold change” value was -0.00646.
The figure for RRIRKRPPRLPRPRPRPKQEPRP is -0.104; for RRIRMRPPRLPRPRPRPMFGPRP it is 0.0113; for RRIRYRPPRLPRPRPRPADQPRP it is -0.0819.
In the case of RRIRRRPPRLPRPRPRPHGMPRP it was 0.0957.
Take RRIRNRPPRLPRPRPRPWVHPRP: the “shrunken log2 fold change” value was -0.288.
The figure for RRIRSRPPRLPRPRPRPIDIPRP is -0.3; for RRIRSRPPRLPRPRPRPWKHPRP it is -0.0883.
For the sequence RRIRNRPPRLPRPRPRPCIHPRP, the “shrunken log2 fold change” value was -0.355.
With RRIRSRPPRLPRPRPRPRVTPRP, the “shrunken log2 fold change” value was determined as 0.169.
For the sequence RRIRDRPPRLPRPRPRPQQFPRP, the “shrunken log2 fold change” value came to 0.251.
Take RRIRFRPPRLPRPRPRPPDQPRP: the “shrunken log2 fold change” value is 0.63.
In the case of RRIRLRPPRLPRPRPRPGYYPRP it was -0.166; in that of RRIRQRPPRLPRPRPRPYFKPRP, -0.454; in that of RRIRHRPPRLPRPRPRPMRTPRP, -0.11.
